This experiment deals with T1, mouse mMLH1 (mouse, UniProt Q9JK91 1-760).
T1 sequence (looked up): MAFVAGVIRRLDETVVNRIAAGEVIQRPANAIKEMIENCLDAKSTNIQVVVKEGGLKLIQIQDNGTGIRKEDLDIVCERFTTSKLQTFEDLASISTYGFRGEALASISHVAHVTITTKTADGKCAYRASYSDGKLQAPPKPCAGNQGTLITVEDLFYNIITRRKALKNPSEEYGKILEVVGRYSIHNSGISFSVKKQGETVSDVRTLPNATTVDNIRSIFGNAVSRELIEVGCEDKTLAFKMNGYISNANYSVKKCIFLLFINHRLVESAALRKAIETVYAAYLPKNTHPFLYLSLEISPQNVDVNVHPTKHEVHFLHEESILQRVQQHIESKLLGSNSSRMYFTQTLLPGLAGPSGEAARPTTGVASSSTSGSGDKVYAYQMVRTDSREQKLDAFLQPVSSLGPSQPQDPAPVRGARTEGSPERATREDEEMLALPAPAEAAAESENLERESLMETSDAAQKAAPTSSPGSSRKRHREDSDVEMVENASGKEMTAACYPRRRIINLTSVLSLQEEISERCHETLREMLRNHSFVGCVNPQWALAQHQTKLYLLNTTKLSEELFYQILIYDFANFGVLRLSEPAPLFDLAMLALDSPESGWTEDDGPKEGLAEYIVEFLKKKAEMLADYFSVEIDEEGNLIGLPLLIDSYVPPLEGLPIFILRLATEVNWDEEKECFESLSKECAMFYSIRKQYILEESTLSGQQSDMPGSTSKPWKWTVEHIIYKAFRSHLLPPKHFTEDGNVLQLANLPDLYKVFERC
The experiment in a line: pull-down.

Data on one molecule can be found in paper PMC2582629 (Nucleic Acids Research, 2008).

B1: GST-hRad9 (natural protein, human, UniProt Q99638 1-391, looked up)
chain: MKCLVTGGNVKVLGKAVHSLSRIGDELYLEPLEDGLSLRTVNSSRSAYACFLFAPLFFQQYQAATPGQDLLRCKILMKSFLSVFRSLAMLEKTVEKCCISLNGRSSRLVVQLHCKFGVRKTHNLSFQDCESLQAVFDPASCPHMLRAPARVLGEAVLPFSPALAEVTLGIGRGRRVILRSYHEEEADSTAKAMVTEMCLGEEDFQQLQAQEGVAITFCLKEFRGLLSFAESANLNLSIHFDAPGRPAIFTIKDSLLDGHFVLATLSDTDSHSQDLGSPERHQPVPQLQAHSTPHPDDFANDDIDSYMIAMETTIGNEGSRVLPSISLSPGPQPPKSPGPHSEEEDEAEPSTVPGTPPPKKFRSLFFGSILAPVRSPQGPSPVLAEDSEGEG
Regarding B1, the binding result is given as “binds”.
